# Assay results: publication PMC4951027
# B1: Fn + FnBPA-10 (FnBPA-10-bound Fn) (complex)
# chain 1: not shown
# chain 2: not shown
# chain 3: KYEHGGNIIDIDFDSVPHIHGFNKHTEIIEEDTNKDKP
# Target: ecto-domain of integrin α5β1-Fc fusion protein
# Test: SPR
binder,measurement,value
B1,Kd,260 nM
same,"ka1 (first step, bivalent analyte model)",61000 M⁻¹ s⁻¹
same,"ka2 (second step, bivalent analyte model)",1.3e-05 RU^-1s^-1
same,"kd1 (first step, bivalent analyte model)",0.015 s⁻¹
same,"kd2 (second step, bivalent analyte model)",0.001 s⁻¹
